The source of these data is patent publication US20210388081A1 (Memorial Sloan Kettering, published 2021).

Assay [1] has as its target anti-FcRL5/CD3 bispecific antibody generated using the ET200-104 scFv. Kind of assay: ELISA, ET200-104 coated at 1 µg/ml on a Nunc Maxisorp plate; for some dilutions of the secondary Ab.
For assay [2], the target named is anti-FcRL5/CD3 bispecific antibody generated using the ET200-117 scFv. Kind of assay: ELISA, ET200-117 coated at 1 µg/ml on a Nunc Maxisorp plate; for some dilutions of the secondary Ab.
For assay [3], the target named is T1, FcRL2, overexpressed on 3T3 cells (UniProt Q96LA5 20-508, limits assumed).
T1 construct: whole, on cells
T1 sequence (looked up): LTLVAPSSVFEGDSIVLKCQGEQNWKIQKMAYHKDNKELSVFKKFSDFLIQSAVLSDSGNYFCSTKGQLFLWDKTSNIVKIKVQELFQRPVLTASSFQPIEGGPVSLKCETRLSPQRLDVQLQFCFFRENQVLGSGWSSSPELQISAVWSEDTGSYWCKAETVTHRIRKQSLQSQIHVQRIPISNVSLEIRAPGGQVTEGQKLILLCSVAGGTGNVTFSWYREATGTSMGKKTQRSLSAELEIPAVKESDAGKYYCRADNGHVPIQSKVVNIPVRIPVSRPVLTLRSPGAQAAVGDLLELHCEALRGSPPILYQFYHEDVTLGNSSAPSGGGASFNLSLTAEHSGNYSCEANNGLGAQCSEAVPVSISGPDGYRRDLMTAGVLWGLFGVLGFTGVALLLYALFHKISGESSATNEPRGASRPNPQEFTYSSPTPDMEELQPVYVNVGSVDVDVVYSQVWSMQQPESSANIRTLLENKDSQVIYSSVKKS
Kind of assay: phage clone on 3T3-FcRL2 cells.

The target in assay [4] is T2, FcRL3, overexpressed on 3T3 cells (UniProt Q96P31 18-734, limits assumed).
T2 construct: whole, on cells
T2 sequence (looked up): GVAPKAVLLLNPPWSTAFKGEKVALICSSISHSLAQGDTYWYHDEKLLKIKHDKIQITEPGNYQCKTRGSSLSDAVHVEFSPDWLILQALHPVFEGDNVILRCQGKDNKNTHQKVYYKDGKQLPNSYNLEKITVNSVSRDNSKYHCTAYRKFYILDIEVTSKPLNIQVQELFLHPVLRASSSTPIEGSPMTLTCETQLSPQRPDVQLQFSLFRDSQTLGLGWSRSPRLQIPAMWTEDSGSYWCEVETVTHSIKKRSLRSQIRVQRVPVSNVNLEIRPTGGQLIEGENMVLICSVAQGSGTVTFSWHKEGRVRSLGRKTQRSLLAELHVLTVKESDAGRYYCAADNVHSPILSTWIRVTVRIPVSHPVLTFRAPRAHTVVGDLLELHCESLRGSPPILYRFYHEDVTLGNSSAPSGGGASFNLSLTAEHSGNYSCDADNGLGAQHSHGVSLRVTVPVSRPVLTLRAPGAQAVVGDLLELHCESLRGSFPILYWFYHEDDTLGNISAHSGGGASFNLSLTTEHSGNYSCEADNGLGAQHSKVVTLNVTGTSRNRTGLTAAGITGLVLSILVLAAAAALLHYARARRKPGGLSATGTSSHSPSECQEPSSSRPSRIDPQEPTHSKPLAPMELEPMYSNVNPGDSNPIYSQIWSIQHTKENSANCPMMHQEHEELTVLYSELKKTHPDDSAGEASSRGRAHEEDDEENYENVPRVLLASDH
Nature of the assay: phage clone on 3T3-FcRL3 cells.

For assay [5], the target named is T3, FcRL4, overexpressed on 3T3 cells (UniProt Q96PJ5 20-515, limits assumed).
T3 construct: whole, on cells
T3 sequence (looked up): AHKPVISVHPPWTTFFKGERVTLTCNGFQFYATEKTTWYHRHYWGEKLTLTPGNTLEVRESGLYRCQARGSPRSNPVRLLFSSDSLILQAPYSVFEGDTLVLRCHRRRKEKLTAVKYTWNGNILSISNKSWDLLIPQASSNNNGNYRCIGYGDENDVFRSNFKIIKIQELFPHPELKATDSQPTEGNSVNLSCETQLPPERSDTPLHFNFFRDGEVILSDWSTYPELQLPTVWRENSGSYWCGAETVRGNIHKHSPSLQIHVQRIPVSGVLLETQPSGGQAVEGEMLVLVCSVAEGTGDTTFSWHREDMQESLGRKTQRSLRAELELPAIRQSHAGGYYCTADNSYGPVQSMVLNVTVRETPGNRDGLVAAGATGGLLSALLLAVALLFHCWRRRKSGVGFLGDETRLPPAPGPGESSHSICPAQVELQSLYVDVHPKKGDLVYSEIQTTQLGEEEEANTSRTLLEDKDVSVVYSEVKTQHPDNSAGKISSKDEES
Kind of assay: phage clone on 3T3-FcRL4 cells.

Assay [6] has as its target SLAMF9 protein (UniProt Q96A28 19-236, limits assumed). Nature of the assay: phage clone on SLAMF9 protein.
In assay [7] the target is T4, FcRL1, overexpressed on 3T3 cells (UniProt Q96LA6 17-429, limits assumed).
T4 construct: whole, on cells
T4 sequence (looked up): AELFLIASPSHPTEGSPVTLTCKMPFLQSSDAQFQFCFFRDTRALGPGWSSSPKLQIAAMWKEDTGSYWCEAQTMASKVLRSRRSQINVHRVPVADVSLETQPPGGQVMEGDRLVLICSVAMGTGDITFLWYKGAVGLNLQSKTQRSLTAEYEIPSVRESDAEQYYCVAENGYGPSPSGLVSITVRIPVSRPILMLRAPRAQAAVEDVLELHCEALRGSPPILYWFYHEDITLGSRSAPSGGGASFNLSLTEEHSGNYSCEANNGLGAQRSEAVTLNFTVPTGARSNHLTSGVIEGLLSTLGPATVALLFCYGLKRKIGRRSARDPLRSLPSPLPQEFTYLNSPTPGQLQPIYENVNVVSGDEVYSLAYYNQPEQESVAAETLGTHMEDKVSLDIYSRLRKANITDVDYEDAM
Nature of the assay: phage clone on 3T3-FcRL1 cells.

For assay [8], the target named is T5, FcRL6, overexpressed on 3T3 cells (UniProt Q6DN72 20-434, limits assumed).
T5 construct: whole, on cells
T5 sequence (looked up): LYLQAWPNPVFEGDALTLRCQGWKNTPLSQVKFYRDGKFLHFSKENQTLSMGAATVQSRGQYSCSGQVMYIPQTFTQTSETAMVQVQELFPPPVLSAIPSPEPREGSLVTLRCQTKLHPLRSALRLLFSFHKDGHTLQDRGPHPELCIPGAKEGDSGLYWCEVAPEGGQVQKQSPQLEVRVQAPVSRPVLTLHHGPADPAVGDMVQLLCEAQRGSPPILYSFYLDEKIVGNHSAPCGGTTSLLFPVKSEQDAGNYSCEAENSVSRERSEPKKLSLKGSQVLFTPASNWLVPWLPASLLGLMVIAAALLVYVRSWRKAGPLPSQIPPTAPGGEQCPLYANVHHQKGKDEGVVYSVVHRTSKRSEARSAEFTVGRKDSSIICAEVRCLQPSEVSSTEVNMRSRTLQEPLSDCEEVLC
Nature of the assay: phage clone on 3T3-FcRL6 cells.

A value given as a limit tells only on which side of the number the result lay.

SLAMF9 protein, sequence (Q96A28 19-236 limits assumed): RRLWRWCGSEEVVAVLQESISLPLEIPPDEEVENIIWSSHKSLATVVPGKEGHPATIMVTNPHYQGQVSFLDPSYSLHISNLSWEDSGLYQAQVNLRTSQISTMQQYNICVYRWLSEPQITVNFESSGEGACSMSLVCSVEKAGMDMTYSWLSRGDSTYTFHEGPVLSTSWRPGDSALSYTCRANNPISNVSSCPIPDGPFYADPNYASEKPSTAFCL
anti-FcRL5/CD3 bispecific antibody generated using the ET200-117 scFv, sequence (scFv, as listed by the source limits assumed, form in doubt): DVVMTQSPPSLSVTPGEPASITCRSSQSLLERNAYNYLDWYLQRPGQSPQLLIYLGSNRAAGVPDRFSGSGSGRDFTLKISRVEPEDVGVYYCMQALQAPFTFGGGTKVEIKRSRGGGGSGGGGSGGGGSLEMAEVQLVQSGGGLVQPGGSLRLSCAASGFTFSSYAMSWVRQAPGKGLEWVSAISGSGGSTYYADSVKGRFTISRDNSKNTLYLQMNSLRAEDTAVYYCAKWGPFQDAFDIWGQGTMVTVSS

Turning to “Goat Anti-Human Ig-HRP (Southern Biotech; #2010/05) (antibody)”, the OD in assay [1] and in assay [2] was over 1 OD throughout.

B1: ET200-037 (scFv)
scFv: SYVLTQPPSVSVAPGKTARITCGGNNIGSKSVHWYQQKPGQAPVLVIYYDSDRPSGIPERFSGSNSGNTATLTISRVEAGDEADYYCQVWDSSSDHPYVFGTGTKVTVLGSRGGGGSGGGGSGGGGSLEMAQMQLVQSGAEVKKPGASVKVSCKASGYTFTSYGISWVRQAPGQGLEWMGWISAYNGNTNYAQKLQGRVTMTTDTSTSTAYMELRSLRSDDTAVYYCARSMFGAHDSWGQGTLVTVSSTSGQAGQHHHHHHGAYPYDVPDYAS
notes: screened as phage clone; entry is VL-linker-VH-His tag-HA tag
B1: the binding result in assay [3], in assay [4], in assay [5], in assay [6], in assay [7] and in assay [8] was “no binding” each time.

B2: ET200-024 (scFv)
scFv: NFMLTQPHSVSESPGKTVTISCTGSSGSIASNYVQWYQQRPGSAPTTVIYEDNQRPSGVPDRFSGSIDSSSNSASLTISGLKTEDEADYYCQSYDSSNLWVFGGGTKLTVLGSRGGGGSGGGGSGGGGSLEMAQMQLVQSGAEVKKPGSSVKVSCKASGGTFSSYAISWVRQAPGQGLEWMGGIIPIFGTANYAQKFQGRVTITADESTSTAYMELSSLRSEDTAVYYCARYNYYYYDSWGQGTLVTVSSTSGQAGQHHHHHHGAYPYDVPDYAS
notes: as for B1
For the molecule B2, the binding result in assay [3], in assay [4], in assay [5], in assay [6], in assay [7] and in assay [8] was “no binding” in each case.
